# Data as given in PMC6422494.
# Target: GST-stx-1A (syntaxin-1A, GST fusion, immobilised on glutathione-sepharose beads) (UniProt P32851)
# Test: pull-down; GST-stx-1A immobilised on glutathione-sepharose beads; one prey protein (5 µM), 20 hr, 4°C; 100 mM NaCl, 20 mM Tris, 1 mM DTT, 1 mM EDTA, 0.5% Triton X-100, pH 7.4; four washes; SDS-PAGE, Coomassie, molar retention ratio by densitometry
# UniProt P32851, sequence (P32851 1-262): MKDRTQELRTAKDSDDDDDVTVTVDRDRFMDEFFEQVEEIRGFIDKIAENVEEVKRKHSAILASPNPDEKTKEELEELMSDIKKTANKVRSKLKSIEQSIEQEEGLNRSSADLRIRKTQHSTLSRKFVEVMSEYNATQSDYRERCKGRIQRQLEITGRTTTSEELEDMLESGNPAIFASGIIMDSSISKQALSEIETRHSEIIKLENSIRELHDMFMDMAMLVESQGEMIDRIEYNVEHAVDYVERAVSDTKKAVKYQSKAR
substance,measurement,value
"SN25 L^GGS (6xHis-tagged, recombinant; whole linker aa 83-141 substituted by a flexible G/S peptide) (from UniProt P60881-2 1-82; P60881-2 142-206) (natural protein)","molar ratio bound, percent lower than WT",50 % lower
